These results are taken from paper PMC2408616, “Modular Organization and Combinatorial Energetics of Proline–Tyrosine Nuclear Localization Signals” (PLoS Biology, 2008).

For this experiment, the target named is T1, Kap104p (yeast (S. cerevisiae), UniProt P38217 1-918).
T1 construct: Kap104p, yeast homolog of Kapβ2; gene a gift from J. Aitchison, subcloned into pGEX-Tev; also called yeast Karyopherin β2 homolog; source: E. coli Rosetta(DE3)pLysS, purified (glutathione sepharose, TEV cleavage, anion exchange, gel filtration)
T1 sequence (looked up): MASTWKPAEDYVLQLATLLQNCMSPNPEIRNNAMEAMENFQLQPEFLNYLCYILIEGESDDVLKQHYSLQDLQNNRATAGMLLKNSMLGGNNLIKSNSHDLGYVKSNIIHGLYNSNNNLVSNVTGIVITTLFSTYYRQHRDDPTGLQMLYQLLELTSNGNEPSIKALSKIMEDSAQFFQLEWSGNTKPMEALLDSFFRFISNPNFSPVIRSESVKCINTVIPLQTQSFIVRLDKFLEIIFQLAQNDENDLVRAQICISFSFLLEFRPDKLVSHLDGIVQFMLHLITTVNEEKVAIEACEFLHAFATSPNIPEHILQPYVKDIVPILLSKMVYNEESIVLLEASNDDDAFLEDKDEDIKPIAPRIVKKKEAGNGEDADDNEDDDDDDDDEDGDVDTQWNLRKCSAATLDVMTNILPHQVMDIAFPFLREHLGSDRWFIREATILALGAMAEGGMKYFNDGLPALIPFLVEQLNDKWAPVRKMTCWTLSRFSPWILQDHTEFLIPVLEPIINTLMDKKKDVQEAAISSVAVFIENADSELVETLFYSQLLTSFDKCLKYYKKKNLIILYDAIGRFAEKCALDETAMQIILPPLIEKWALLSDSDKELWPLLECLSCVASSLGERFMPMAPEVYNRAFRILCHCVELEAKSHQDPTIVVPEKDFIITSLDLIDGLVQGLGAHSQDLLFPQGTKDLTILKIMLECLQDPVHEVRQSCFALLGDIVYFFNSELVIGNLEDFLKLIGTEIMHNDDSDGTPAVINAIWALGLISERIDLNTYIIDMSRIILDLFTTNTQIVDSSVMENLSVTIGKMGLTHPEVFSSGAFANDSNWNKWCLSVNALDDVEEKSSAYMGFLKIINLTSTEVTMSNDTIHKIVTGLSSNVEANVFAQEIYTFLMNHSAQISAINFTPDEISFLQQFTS
Briefly: ITC; 90–350 μM MBP-NLS titrated into 9–35 μM Kap104p in the cell; 20 °C; 20 mM Tris pH 7.5, 100 mM NaCl, 2 mM β-mercaptoethanol, 10% glycerol; 35 injections of 8 μl; single-site model. To be noted: both partners purified. In general terms: ITC needs no label: the signal is the heat of the interaction.

Where no end group is shown, it is not given here. MBP = not defined here

As usually defined, the Kd is the free concentration of one partner at which half of the binding sites on the other are occupied at equilibrium, for simple one-to-one binding. Read a low Kd as a tighter complex.

B1: MBP–Nab2p NLS 238PL239/AA (domain or fragment, S. cerevisiae, UniProt P32505 201-251, looked up)
chain: DNSQRFTQRGGGAVGKNRRGGRGGNRGGRNNNSTRFNAAAKALGMAGESNM
notes: Nab2p NLS, residues 201-251; source: E. coli BL21(DE3), purified (amylose resin, cation exchange)
B1 displayed a dissociation constant Kd of 376 nM.

B2: MBP–Nab2p NLS L239S (domain or fragment, S. cerevisiae, UniProt P32505 201-251, looked up)
chain: DNSQRFTQRGGGAVGKNRRGGRGGNRGGRNNNSTRFNPSAKALGMAGESNM
notes: Nab2p NLS, residues 201-251; also called L239 to S; source: E. coli BL21(DE3), purified (amylose resin, cation exchange)
Turning to B2, the binding result is “binds”.

B3: MBP–Nab2p NLS L239T (domain or fragment, S. cerevisiae, UniProt P32505 201-251, looked up)
chain: DNSQRFTQRGGGAVGKNRRGGRGGNRGGRNNNSTRFNPTAKALGMAGESNM
notes: Nab2p NLS, residues 201-251; also called L239 to T; source: E. coli BL21(DE3), purified (amylose resin, cation exchange)
As for B3, the binding result is “binds”.

B4: MBP–Nab2p NLS R235H (domain or fragment, S. cerevisiae, UniProt P32505 201-251, looked up)
chain: DNSQRFTQRGGGAVGKNRRGGRGGNRGGRNNNSTHFNPLAKALGMAGESNM
notes: Nab2p NLS, residues 201-251; also called R235 to histidine; source: E. coli BL21(DE3), purified (amylose resin, cation exchange)
For B4, the “KD,mutant/KD,wild type” value is 1.7.

B5: MBP–Nab2p NLS L239V (domain or fragment, S. cerevisiae, UniProt P32505 201-251, looked up)
chain: DNSQRFTQRGGGAVGKNRRGGRGGNRGGRNNNSTRFNPVAKALGMAGESNM
notes: Nab2p NLS, residues 201-251; also called L239 to V; source: E. coli BL21(DE3), purified (amylose resin, cation exchange)
For B5, the binding result is given as “binds”.

B6: MBP–Nab2p NLS L239F (domain or fragment, S. cerevisiae, UniProt P32505 201-251, looked up)
chain: DNSQRFTQRGGGAVGKNRRGGRGGNRGGRNNNSTRFNPFAKALGMAGESNM
notes: Nab2p NLS, residues 201-251; also called L239 to F; source: E. coli BL21(DE3), purified (amylose resin, cation exchange)
For the molecule B6, the binding result was “binds”.

B7: MBP–Nab2p NLS L239Q (domain or fragment, S. cerevisiae, UniProt P32505 201-251, looked up)
chain: DNSQRFTQRGGGAVGKNRRGGRGGNRGGRNNNSTRFNPQAKALGMAGESNM
notes: Nab2p NLS, residues 201-251; also called L239 to Q; source: E. coli BL21(DE3), purified (amylose resin, cation exchange)
Take B7: the binding result is “binds”.

B8: MBP–Nab2p NLS L239N (domain or fragment, S. cerevisiae, UniProt P32505 201-251, looked up)
chain: DNSQRFTQRGGGAVGKNRRGGRGGNRGGRNNNSTRFNPNAKALGMAGESNM
notes: Nab2p NLS, residues 201-251; also called L239 to N; source: E. coli BL21(DE3), purified (amylose resin, cation exchange)
As for B8, the binding result is “binds”.

B9: MBP–Nab2p NLS R226A (domain or fragment, S. cerevisiae, UniProt P32505 201-251, looked up)
chain: DNSQRFTQRGGGAVGKNRRGGRGGNAGGRNNNSTRFNPLAKALGMAGESNM
notes: as for B1
Regarding B9, the “KD,mutant/KD,wild type” value was around 1.

B10: MBP–Nab2p NLS L239I (domain or fragment, S. cerevisiae, UniProt P32505 201-251, looked up)
chain: DNSQRFTQRGGGAVGKNRRGGRGGNRGGRNNNSTRFNPIAKALGMAGESNM
notes: as for B1
Consider B10, for which the binding result is listed as “binds”.

B11: MBP–Nab2p NLS R222A, 238PL239/AA (domain or fragment, S. cerevisiae, UniProt P32505 201-251, looked up)
chain: DNSQRFTQRGGGAVGKNRRGGAGGNRGGRNNNSTRFNAAAKALGMAGESNM
notes: as for B1
B11 came in with a Kd of 411 nM. This lies in the sub-micromolar range.

B12: MBP–Nab2p NLS 238PL239/PY (domain or fragment, S. cerevisiae, UniProt P32505 201-251, looked up)
chain: {MBP}-DNSQRFTQRGGGAVGKNRRGGRGGNRGGRNNNSTRFNPYAKALGMAGESNM
modifications: reading uncertain
notes: Nab2p NLS, residues 201-251; also called L239Y; source: E. coli BL21(DE3), purified (amylose resin, cation exchange)
With B12, the Kd turned out to be 13 nM. This Kd is about 32-fold lower than that of the molecule before.

B13: MBP–Nab2p NLS F236A (domain or fragment, S. cerevisiae, UniProt P32505 201-251, looked up)
chain: DNSQRFTQRGGGAVGKNRRGGRGGNRGGRNNNSTRANPLAKALGMAGESNM
notes: as for B1
For B13, the “KD,mutant/KD,wild type” value came to 8.

B14: MBP–Nab2p NLS R235A (domain or fragment, S. cerevisiae, UniProt P32505 201-251, looked up)
chain: DNSQRFTQRGGGAVGKNRRGGRGGNRGGRNNNSTAFNPLAKALGMAGESNM
notes: as for B1
With B14, the “KD,mutant/KD,wild type” value is 5.5.

B15: MBP–Nab2p NLS R229A (domain or fragment, S. cerevisiae, UniProt P32505 201-251, looked up)
chain: DNSQRFTQRGGGAVGKNRRGGRGGNRGGANNNSTRFNPLAKALGMAGESNM
notes: as for B1
Regarding B15, the “KD,mutant/KD,wild type” value was around 1.

B16: MBP–Nab2p NLS L239H (domain or fragment, S. cerevisiae, UniProt P32505 201-251, looked up)
chain: DNSQRFTQRGGGAVGKNRRGGRGGNRGGRNNNSTRFNPHAKALGMAGESNM
notes: Nab2p NLS, residues 201-251; also called L239 to H; source: E. coli BL21(DE3), purified (amylose resin, cation exchange)
Consider B16, for which the binding result is “binds”.

B17: MBP–Nab2p NLS R218A (domain or fragment, S. cerevisiae, UniProt P32505 201-251, looked up)
chain: DNSQRFTQRGGGAVGKNARGGRGGNRGGRNNNSTRFNPLAKALGMAGESNM
notes: as for B1
With B17, the “KD,mutant/KD,wild type” value was around 1.

B18: MBP–Nab2p NLS L239G (domain or fragment, S. cerevisiae, UniProt P32505 201-251, looked up)
chain: DNSQRFTQRGGGAVGKNRRGGRGGNRGGRNNNSTRFNPGAKALGMAGESNM
notes: as for B1
B18: the binding result is “binds”.

B19: MBP–Nab2p NLS L239R (domain or fragment, S. cerevisiae, UniProt P32505 201-251, looked up)
chain: DNSQRFTQRGGGAVGKNRRGGRGGNRGGRNNNSTRFNPRAKALGMAGESNM
notes: Nab2p NLS, residues 201-251; also called L239 to R; source: E. coli BL21(DE3), purified (amylose resin, cation exchange)
As to B19, the binding result is listed as “binds”.
